Measurements reported in the domain aggregation screens of Martell et al. (2025).

Experiment: soluble fraction after stress (log2 fold change); higher = more stays soluble; pooled small domains, quantitative proteomics
Details: stress: 75 degC
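Note: 20 min heating vs room temperature control held 20 min.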

HMKFPPELVEFIEGLSLLKPPLNYATVHRRAEKLAIKKGWASPSYSTVRNIIRKLSPALTTLAHEG
soluble fraction (log2): -2.57

HMQLTDSDFTRLYTYVKNSYGIDLSKKKQLISSRLTNMLIQQGYRDFTQYTDEIISGKNPEMVSAMLNRLT
soluble fraction (log2): -1.33

HMYEDNERSLVPIVQNFLKEKKILLSNQSINLIVQRSGGDRINLYNELQKIESFSKNQKKIDIGDIIKLTN
soluble fraction (log2): -1.03

HMLQEHVLEIRHPSWNDAFRIIGHDGWRTQTGAHAAILSYDEEELNIKWDSWGYERFIRDEKGIFRLAA
soluble fraction (log2): -0.11

HMTTTTTYITNTDAVNIRQQATTSSTSLGKLAKNTILSVKKKSGDWYQITYKKQTAYIHASLVDKKTAKVT
soluble fraction (log2): -1.62

HMQNSLKAFRVKRGLTTSALSRLTNGEFSTSRISNYETGVRALTIDAAKKLAPHLGASPAQLLNL
soluble fraction (log2): -0.694

HMQEGPGLVPDFRGQTMREVLRGGQSLGVRVAVDGTGLAVAQTPEPGSPLNKVSQVTVSFRPP
soluble fraction (log2): 0.0233

HMPNQIKQIAVNTASVSDIATIPGISFDFAKEIWEFRILRQKIGSLSELQKIEGMTASKYALIELYLHI
soluble fraction (log2): -3.71

HMVRSLADQVYERLRRNIVSGDLAPNARIVELDIAAQMGTSQGPVREALQRLEREGLVQRRAHSATFVTD
soluble fraction (log2): -0.554

HMEHGQWLSEAQGASLAADWLARRRGVLPLNARRHLSGLSDQIARQIEGGLSREAGLYTAHEMMESLDP
soluble fraction (log2): -0.427

HMKRIHLSDEEKTDLESLHYSSNDGKQRDRIKAVLLRSEGWTVPMISQALRIHETTVTRYLNDYREGKLKN
soluble fraction (log2): -0.724

HMITIDNYFNKEKELDFSSFPEALRKGHGFVSKATAHGSSWVSYHSSDAIKKTIDIYLSKLNEYLSNNAKA
soluble fraction (log2): -1.08

HMLKKRKPMSGVGVIVKGMLTGTVTGTDGSYALKARPNDELSFSFLGYKTQEVFVGSKSTIDITLVDEA
soluble fraction (log2): -0.111

HMKLRLGVNIDPVATVRNARGSAYPDPVRAAIIAQEAGADGITAHLREDRRHIVDQDITSIIKAIDIPLNF
soluble fraction (log2): -0.129

HMNKIENLSQTILNILRKDHSQAFNYKQIAAKLQLDDPSSRNQIVKKLKDLQGKGTIQEIERGKYILTP
soluble fraction (log2): 0.394

HMKGAADPAIKQKVLDYLDTVEKAKSKEIAKAISEEKSAVDLAVKELAFEDKVEYLYITTTFVALKGKVA
soluble fraction (log2): -1.51

HMQKMPEMQILPNGKVKLPDFSGINMRKAAELLQYGKLRLQPYGSGTAYQQKPAAGTEVDEGTVVEIWF
soluble fraction (log2): -0.83

HMEKLLTTRQSQIFELAKRKGYWNIPREISITQLAQLTGSSKSTISVMLHAIESKIVDTFYDEI
soluble fraction (log2): -3.05

HMGGKWKLRILWHIHHGDTRFSTLKRGIPEISEKILAQQLRELEEHQLIKRRVVTVMPPHVVYEL
soluble fraction (log2): -2.37

HMNSFGWESLIDKEGIADTDLHPSGWVRIDDRRIFVVSEGDFIDKGSGVTVLSVDGNRVVVRELI
soluble fraction (log2): -1.38

HMYLPPYMEVRAVMILDGKPMALMYIEGEGDGLIVSPGYKFDNGKGKVVSITPTKVVVLWAGTKMELG
soluble fraction (log2): -3.37

HMSSLQFVTLTLMEGHAWVGREIQELLMPPQMRIALIRRGDSQVIPKGSTILESADELILSAIEYQG
soluble fraction (log2): -4.48

HMSQYELEDVEKQRLKFKNGDEKALWLLSDIYKDNSQSYEVRLAALRALSESRHPLIIFDIQSSVK
soluble fraction (log2): -0.527

HMGDDYFTILGIERDATTDEIRSAYRRLSKKIHPDAQGSSALFRQVQEAYETLIDPSSRARYVAELNASQG
soluble fraction (log2): 0.00161

HMNNTIKFSVDTTNSGKRLDIFLAENIKQFTRSYLKKIISNNQVKLNNLVANSPSIKVKHSDLILINILE
soluble fraction (log2): -2.75

HMKALYHQLVDLLKKRMESGMIPHDKLPSERELTAQYGVSRTTVRLALQELENTGYIYRRHGKGTFVSDI
soluble fraction (log2): -2.85

HMAAPVGLTQRQMEVAALVADGLTNAEIGRRLHITERSAESHLERVRIRLGFRSRAQVAAWFVTQE
soluble fraction (log2): -3.56

HMGAPLAVGDSVRVVVSGPRAFVYTAPNGALSGAVRNGAAFTVLELSPDNTWARIGSGEWIKVEFLATG
soluble fraction (log2): -0.919

HMYNMEELAGHTEKVYNSLPEELKLVIKLREIENMSYDEISLKTGMPIGTVRSRLHRAREILVDSLKDY
soluble fraction (log2): -1.28

HMTLSDDEFEIIKSLIIDTLKEEALTINALTKKINHKEAKTIQVIRFLLDNGLVAENNLMKLFVI
soluble fraction (log2): -1.43

HMAVEQLKSQIGGFLKANREQSFSAQNMADGLRMNSAAGYQDVVNAMNALVRDGEAVEKDGQFSYNVN
soluble fraction (log2): 0.116

HMATMSIDERILEIRSRAGLTQQEMADRLFVTRQAVSRWERGETVPGIDTLRLIAEAFDVRVDQILEL
soluble fraction (log2): -1.66

HMEQQVDYTQFIQDVRQGQIREVDVDRNGVINGIKRSGENFVTVIPGGYDRDLINDLVKQGVNATGEL
soluble fraction (log2): 0.25

HMSVVKPIYIGMMTSEVEAIMGKPFEVITNNNSKNNQLWIYKYQDKRSVMLTFTNYKLIKIE
soluble fraction (log2): -2.7

HMVRKIQAKLVLRLHAQGLSGRAIARSQGMSRRSVSDVLDAARAVGVGWDDVTGKTDGEVYALLFPGRG
soluble fraction (log2): -2.66

HMAPTVPEVVRLEEGAARSAIEAAGLSVGSVEFRASSDPAGTVLATRPIAGRKVRPSSAVDLVLSDGRTP
soluble fraction (log2): 0.166

HMDGPELYESMKAIVPDQLDRTIFLTGGAYTPRAQEFLARVPNQQMEKPFEFEALRSLLARLT
soluble fraction (log2): 0.128

HMLWTHIALPVRSLDDTMAFYDKYTTLENIHERQDPETNMRSVWLANPGDKTEQAARFVLVLI
soluble fraction (log2): -0.119

HMDAIDQDGNHMTFKRWGEQLQEAFQALEAYDTDKAKTILNELIKFPIDSDLNNALKGILSNIDEMMA
soluble fraction (log2): -0.914

HMAEPLEIGDTVRIIDGFYGGEIGVISELVNPDAKNAEFEQVRVRLDQDTELALPIHNVERVRL
soluble fraction (log2): 0.498

HMTPKTSVPKPGQTVVVRKGDTIYALARIHDITPADLIAWNRLDNPSQIYPGQVIRLYPQGA
soluble fraction (log2): -0.563

HMSEITMMQMEIPEGHNWENRLVKDVSMPTGSLAVMIKRHGETLIPGGDTRILAGDTIVLSVPAYESG
soluble fraction (log2): -0.112

HMPVEQVWHIAEAGKTKGPFSRASMGRMSADGALTRDTLVWTAGQDGWKKAADVTALATLFT
soluble fraction (log2): 0.0108

HMLGYQALASAFRSKVEAGIWPIGEAIPSEARLSKEYGVAVGTIRQAIAELAEEGILIKRHGKSTMVSSG
soluble fraction (log2): -1.49

HMEKIDEDIMDVLKKKAEVSGISLGVLKSIYEKAVKQYKLGHEIGQVKEQYAMQKVNTHLLENK
soluble fraction (log2): 0.461

HMSRSLLAALEKLRESHTGSLPASVLSSAQRRSLESFAQTTKSVQMRPSGRGVVFAIINPEVVDKHWRELS
soluble fraction (log2): -0.959

HMEAPWQEIKRQVMDGLDMSREFTDEELRERIALAVRSYSKEKLLSLKVRESYEEQIFNSFR
soluble fraction (log2): -1.05

HMDQPVIDVREFGARGDGKQDDAPAIQAAVRLAEQLGGGRVVVPATREFYLLGSTIRIRGHHVTLTGPGAR
soluble fraction (log2): 0.0456

HMTDAELDLLTPREQEVLQLIARGYLYKEIARRLGISVKTVEAHASSVLRKLQLSTRHELSHWAAQRH
soluble fraction (log2): -0.0813

HMLPTLSLSVKIYKGEGDIALDLEEMVKAFDQLNFGSYPFSEKGVHGTNIVIRGNDKKHMEEAEDKVRSLT
soluble fraction (log2): -0.438

HMADLSAYAGKEGMTDSVLRPSGKVDIEGHILDAVSRGDFIEKGKRVIVIKAEGSYLVVKKRMP
soluble fraction (log2): -1.84

HMNPAIYIRKNILNLTQEKLSEYLDVTQPTIHRWEESGVIPAKHQRQIREFASEKGIYWNDSWFFSIPDE
soluble fraction (log2): -1.53

HMSQSDLASAIGARVTIRLREASGGFRDIVGVLQRFGSGYGELINSKGEALTFSESEIAIWREVKA
soluble fraction (log2): -2.5

HMGYGEQEAEATKYMSLHAIMSADETLSKMYTPENQHKLMTHVMEQNGIKNVKDYLTPPSELP
soluble fraction (log2): 0.016

HMGVENDGYVLPRELKKGDTVLIADLGKEATVLSPVDRNGNVEVLAGAAKTRVKLKNLRLIE
soluble fraction (log2): 0.0345

HMEKRRQEIVELVKRESEISFAELKQHFPEVSEVTLRKDLKYLDSTLQIIRIHGGAKSLPAAI
soluble fraction (log2): -0.965

HMRLPNGYGGVTKLSGRRRKPYMVRKTIGWHIDEKTDKKVQDYVVIGYAATKSEALQMLADYNNNPFDV
soluble fraction (log2): -2.93

HMAGSGLPVPRFVSLADDRVNARAGPGFRFPINWVYLRKGFPVEVVDEFGPWRRIRDIDGVAAWIHLSMLS
soluble fraction (log2): -0.654

HMFPELSPEEQLIVEVLSKTNDLQVNLISVKTNIDISRLTSLLFTLEMKGVIKTFAGGMYHLL
soluble fraction (log2): -1.19

HMYFMDEETWESKKTLLNDWYEANPEYADRRAISDGLFKIGDLQPDFRRRHWGSIGVIFADIPNSPMG
soluble fraction (log2): -0.502

HMSSHSAEAVRHRIKSMIDHEARDGDVLSDDRIVELLNQAGIDIARRTVAKYREALRIPSSVERKRRLKA
soluble fraction (log2): -0.163

HMDEARLAVASNLIRLRTDAGMTQAELGEKLNYSDKTISKWERAEAIPDAFVLKQIGELFHVSVDFLLRTH
soluble fraction (log2): -2.28

HMDKVVGSAGDVTSRITANSGEVKIDGQIWQARSYDETIAIEAGEKIEVFDLDGITLIVYPI
soluble fraction (log2): -0.833

HMGTGVEQGKQYRTLKRDFDGASGIKVNGDFYRLRTSDTGMTELPAGTEVTFERFDGTTAVVHT
soluble fraction (log2): 0.0416

HMIPDLPAIGENLYRERKRQQLSMAELAAASGISKAMLSQIEADKVNPTIATLWKIAHALHVDLESLISGG
soluble fraction (log2): -0.965

HMHNNTITLNKKTYVYTASGKKMSKYLGYTYINKGTTLNYYGTKNIKGKTFYYIGDHAYVNAANVGKVTN
soluble fraction (log2): -2.07

HMKKMEEEFALFNAWVDRRLGIPLAAYKENQMQRRILTIMENSGAKTLREYQQLIEGDEGVRAAFLAHIT
soluble fraction (log2): -2.15

HMPKITTIHIDPEKISKVIGPGGKTVKKIIEETGAKIDIEDTGKIFIAAVNTEAANKAIDMINGIVA
soluble fraction (log2): 0.101

HMTSSSGTITADWLNVRSGAGTNFSRLGSIAGGTRLTVISVHGEWYKITASFEGEIRTGYVHSQYVQMDGE
soluble fraction (log2): -3.87

HMDEIELLLQDAIQKLPEKQRMVFTLRYYDNLPYEEISKILDMSVSTLKTNYHYAKSKIEQYILDHS
soluble fraction (log2): -1.64

HMKIDANTFTSIEKQLFVLLSKTPTPMGSIFVALAKEDKEAVWEVIHFLEAENRLIMNEDGTIQL
soluble fraction (log2): -2.14

HMYTVVVGDSPSLIADKTGVPLKELTAMNPNLSDNFLPGKQLL
soluble fraction (log2): -0.0135

HMTPILTAQQVVAALQAAGYRNVHDLEFEHGRWEADAVNAAGQRVELHINPYTGAIERERLD
soluble fraction (log2): 0.584

HMAIRPDAAVSSHAVKQRLQSLIRAEDPAAPLSDEALRLALSALGIGVSRRAVAKYRAEMGIPSSSQRKK
soluble fraction (log2): -0.492

HMISKRFQIDEENAHKRIDIFLSHEFDSISRGIVQELIVKGEVLVNDKVTKRNYKLKTGDLVDITINL
soluble fraction (log2): -2.98

HMGKKIVERRNTILNMVNKYGTLDFPQLRDAFPDVSDVTLRKDLQYLDSTKQAIRTHGGIKSI
soluble fraction (log2): -0.0604

HMLGIGANVQKIAQERKISLKELSRRAGIPYTTIYNMVKRDSSRVSPENLQKLADALGVEIGKLYG
soluble fraction (log2): -0.24
